Experimental data taken from IntAct's records for PubMed 27599036.

B1: Ferrochelatase, mitochondrial (Homo sapiens), P22830 (parent)
chain: MRSLGANMAAALRAAGVLLRDPLASSSWRVCQPWRWKSGAAAAAVTTETAQHAQGAKPQVQPQKRKPKTGILMLNMGGPETLGDVHDFLLRLFLDRDLMTLPIQNKLAPFIAKRRTPKIQEQYRRIGGGSPIKIWTSKQGEGMVKLLDELSPNTAPHKYYIGFRYVHPLTEEAIEEMERDGLERAIAFTQYPQYSCSTTGSSLNAIYRYYNQVGRKPTMKWSTIDRWPTHHLLIQCFADHILKELDHFPLEKRSEVVILFSAHSLPMSVVNRGDPYPQEVSATVQKVMERLEYCNPYRLVWQSKVGPMPWLGPQTDESIKGLCERGRKNILLVPIAFTSDHIETLYELDIEYSQVLAKECGVENIRRAESLNGNPLFSKALADLVHSHIQSNELCSKQLTLSCPLCVNPVCRETKSFFTSQQL

Variants of: B1
Conditions: with pgrc1_human PGRMC1, O00264
pgrc1_human PGRMC1, O00264, sequence (O00264 whole entry): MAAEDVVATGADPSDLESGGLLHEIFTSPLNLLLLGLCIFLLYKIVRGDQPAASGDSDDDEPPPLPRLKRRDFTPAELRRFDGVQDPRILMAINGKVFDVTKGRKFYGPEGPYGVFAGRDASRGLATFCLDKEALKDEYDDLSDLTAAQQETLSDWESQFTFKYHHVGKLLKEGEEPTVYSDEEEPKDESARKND

effect of a mutation on the interaction	Variant
disrupting interaction strength	MRSLGANMAAALRAAGVLLRDPLASSSWRVCQPWRWKSGAAAAAVTTETAQHAQGAKPQVQPQKRKPKTGILMLNMGGPETLGDVHDFLLRLFLDRDLMTLPIQNKLAPFIAKRRTPKIQEQYRRIGGGSPIKIWTSKQGEGMVKLLDELSPNTAPHKYYIGFRYVHPLTEEAIEEMERDGLERAIAFTQYPQYSCSTTGSSLNAIYRYYNQVGRKPTMKWSTIDRWPTHHLLIQCFADHILKELDHFPLEKRSEVVILFSAHSLPMSVVNRGDPYPQEVSATVQKVMERLEYCNPYRLVWQSKVGPMPWLGPQTDESIKGLCERGRKNILLVPIAFTSDHIKTLYELDIEYSQVLAKECGVENIRRAESLNGNPLFSKALADLVHSHIQSNELCSKQLTLSCPLCVNPVCRETKSFFTSQQL [E343K]
increasing interaction strength	MRSLGANMAAALRAAGVLLRDPLASSSWRVCQPWRWKSGAAAAAVTTETAQHAQGAKPQVQPQKRKPKTGILMLNMGGPETLGDVHDFLLRLFLDRDLMTLPIQNKLAPAIAKRRTPKIQEQYRRIGGGSPIKIWTSKQGEGMVKLLDELSPNTAPHKYYIGFRYVHPLTEEAIEEMERDGLERAIAFTQYPQYSCSTTGSSLNAIYRYYNQVGRKPTMKWSTIDRWPTHHLLIQCFADHILKELDHFPLEKRSEVVILFSAHSLPMSVVNRGDPYPQEVSATVQKVMERLEYCNPYRLVWQSKVGPMPWLGPQTDESIKGLCERGRKNILLVPIAFTSDHIETLYELDIEYSQVLAKECGVENIRRAESLNGNPLFSKALADLVHSHIQSNELCSKQLTLSCPLCVNPVCRETKSFFTSQQL [F110A]
